Changes are numbered by the printed parent chain. In names and notes the source's numbering stands.

The values below come from paper PMC3590443 (Nature structural & molecular biology, 2012).

First the molecules themselves.
T1: Sema3AS-F with Nrp1_(1-4) (combination in the experiment with EDTA) (mouse, UniProt O08665 21-555; P97333 22-586)
T1 sequence (looked up) 1: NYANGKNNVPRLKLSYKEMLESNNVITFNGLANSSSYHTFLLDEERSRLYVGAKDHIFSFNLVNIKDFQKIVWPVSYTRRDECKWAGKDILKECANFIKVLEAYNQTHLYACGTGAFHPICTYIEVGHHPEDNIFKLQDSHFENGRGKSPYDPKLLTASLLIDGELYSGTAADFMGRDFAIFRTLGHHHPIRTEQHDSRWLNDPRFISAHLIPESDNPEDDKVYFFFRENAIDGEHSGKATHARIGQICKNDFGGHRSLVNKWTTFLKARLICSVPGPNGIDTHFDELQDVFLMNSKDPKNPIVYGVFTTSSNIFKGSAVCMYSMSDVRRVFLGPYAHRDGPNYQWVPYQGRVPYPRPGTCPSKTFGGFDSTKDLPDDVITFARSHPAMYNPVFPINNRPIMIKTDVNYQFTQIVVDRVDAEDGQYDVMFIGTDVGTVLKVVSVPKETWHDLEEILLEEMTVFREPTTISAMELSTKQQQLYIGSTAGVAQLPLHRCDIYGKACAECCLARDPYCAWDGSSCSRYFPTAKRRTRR
T1 sequence (looked up) 2: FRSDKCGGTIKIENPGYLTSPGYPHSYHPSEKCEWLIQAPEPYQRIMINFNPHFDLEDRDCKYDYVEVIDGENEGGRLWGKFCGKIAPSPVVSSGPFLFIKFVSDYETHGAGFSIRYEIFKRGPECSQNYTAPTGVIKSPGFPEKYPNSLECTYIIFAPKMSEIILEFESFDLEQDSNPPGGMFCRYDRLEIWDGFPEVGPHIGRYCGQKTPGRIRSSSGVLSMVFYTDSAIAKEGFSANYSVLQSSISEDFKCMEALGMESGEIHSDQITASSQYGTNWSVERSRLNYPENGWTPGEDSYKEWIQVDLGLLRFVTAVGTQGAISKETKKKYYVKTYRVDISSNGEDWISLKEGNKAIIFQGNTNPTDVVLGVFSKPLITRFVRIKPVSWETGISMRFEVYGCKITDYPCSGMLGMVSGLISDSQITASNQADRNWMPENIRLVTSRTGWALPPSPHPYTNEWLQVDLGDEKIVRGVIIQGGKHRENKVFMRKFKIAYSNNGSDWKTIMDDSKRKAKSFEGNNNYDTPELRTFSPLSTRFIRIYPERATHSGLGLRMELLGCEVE

T2: PlxnA2_(1-4) F275N (mouse, UniProt P70207 35-703, F275N)
T2 sequence (looked up): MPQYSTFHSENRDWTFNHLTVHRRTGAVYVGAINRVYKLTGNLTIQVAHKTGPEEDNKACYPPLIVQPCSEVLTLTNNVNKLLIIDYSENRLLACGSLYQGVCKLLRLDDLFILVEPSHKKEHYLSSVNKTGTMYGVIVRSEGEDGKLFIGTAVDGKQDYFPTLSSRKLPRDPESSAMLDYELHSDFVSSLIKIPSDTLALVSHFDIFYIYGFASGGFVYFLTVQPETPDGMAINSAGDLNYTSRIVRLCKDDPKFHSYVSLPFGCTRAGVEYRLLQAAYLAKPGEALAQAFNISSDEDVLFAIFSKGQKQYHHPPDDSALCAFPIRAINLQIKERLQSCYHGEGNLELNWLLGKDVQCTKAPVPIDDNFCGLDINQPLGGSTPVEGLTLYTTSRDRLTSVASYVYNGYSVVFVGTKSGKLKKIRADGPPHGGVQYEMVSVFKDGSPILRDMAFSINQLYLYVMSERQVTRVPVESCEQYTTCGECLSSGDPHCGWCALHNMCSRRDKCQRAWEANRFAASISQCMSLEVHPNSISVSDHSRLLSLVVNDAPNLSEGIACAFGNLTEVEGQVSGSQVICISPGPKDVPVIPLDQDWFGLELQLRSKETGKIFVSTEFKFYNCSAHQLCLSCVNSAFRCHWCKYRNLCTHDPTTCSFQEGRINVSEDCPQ

T3: Nrp1_(1-4) P73A H74S (mouse, UniProt P97333 22-586, P73A | H74S)
T3 sequence (looked up): T1 sequence (looked up) 2 with P52A, H53S

B1: PlxnA2_(1-4) (mouse PlxnA2 residues 35-703) (domain or fragment, UniProt P70207 35-703, looked up)
chain: T2 sequence (looked up) with N241F
B2: Nrp1_(1-4) (mouse Nrp1 residues 22-586) (domain or fragment, UniProt P97333 22-586, looked up)
chain: T1 sequence (looked up) 2
B3: Sema3AS-P (mouse Sema3A residues 21-568, furin site mutated R551A and R555A) (domain or fragment, UniProt O08665 21-568, looked up)
chain: NYANGKNNVPRLKLSYKEMLESNNVITFNGLANSSSYHTFLLDEERSRLYVGAKDHIFSFNLVNIKDFQKIVWPVSYTRRDECKWAGKDILKECANFIKVLEAYNQTHLYACGTGAFHPICTYIEVGHHPEDNIFKLQDSHFENGRGKSPYDPKLLTASLLIDGELYSGTAADFMGRDFAIFRTLGHHHPIRTEQHDSRWLNDPRFISAHLIPESDNPEDDKVYFFFRENAIDGEHSGKATHARIGQICKNDFGGHRSLVNKWTTFLKARLICSVPGPNGIDTHFDELQDVFLMNSKDPKNPIVYGVFTTSSNIFKGSAVCMYSMSDVRRVFLGPYAHRDGPNYQWVPYQGRVPYPRPGTCPSKTFGGFDSTKDLPDDVITFARSHPAMYNPVFPINNRPIMIKTDVNYQFTQIVVDRVDAEDGQYDVMFIGTDVGTVLKVVSVPKETWHDLEEILLEEMTVFREPTTISAMELSTKQQQLYIGSTAGVAQLPLHRCDIYGKACAECCLARDPYCAWDGSSCSRYFPTAKARTRAQDIRNGDPLTHCS
B4: Sema3AS-P L353N P355S (domain or fragment, mouse, UniProt O08665 21-568, looked up)
chain: B3 chain with L333N, P335S

Holding throughout (experiment): SPR
Background: SPR reads the build-up and loss of mass on a sensor chip optically.

The target of assay [1] is T1, Sema3AS-F with Nrp1_(1-4) (combination …).
Another assay addresses T2, PlxnA2_(1-4) F275N.
The target of the next assay is T3, Nrp1_(1-4) P73A H74S.
The target in assay [2] is B2.

On to B1, for which, in assay [1], the binding result was “binds”.
For B2, the binding result with PlxnA2_(1-4) F275N was “binds”.
B3: the binding result with Nrp1_(1-4) P73A H74S is reported as “binds”.
Take B4: the binding result in assay [2] is “binds”.
